Tested on: K4 kissing-loop RNA reporter
Assay: apparent KD of K4 kissing-loop reporter; higher = weaker reporter binding
Settings: Eterna round: R107
Method: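 RNA-MaP round R107: designed RNA switches with theophylline, tryptophan, arginine or FMN aptamers are transcribed on-chip within common flanks. They are titrated with a labelled K4 kissing-loop RNA reporter in RNA-MaP buffer (100 mM Tris pH 7.5, 80 mM KCl, 4 mM MgCl2), without ligand or with the indicated ligand. Median apparent KD per design.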

[1] = input ligand: theophylline 20 uM
[2] = input ligand: tryptophan 2.4 mM
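Further: bound reporter read as fluorescence of individual clusters on recovered sequencing chips by microscopy, with normalized cluster intensities fitted with a binding model.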

Row | Sequence | apparent KD of K4 kissing-loop reporter (input ligand: FMN 200 uM) | apparent KD of K4 kissing-loop reporter (input ligand: arginine 13.2 mM) | apparent KD of K4 kissing-loop reporter (input ligand: none) | apparent KD of K4 kissing-loop reporter [1] | apparent KD of K4 kissing-loop reporter [2]
1 | CAUAGACAAGUGAUGUUUGUCAUAACCGAAGGAGCGUCUUUAAAGACAGGUAGGUCGCGGAUUAAUUAAGUUAUGAUUCUUUUUA [JR_SSArginiA_Sub017] | 630 nM | 572 nM | 661 nM | 642 nM | 531 nM
2 | AAGGCCACGAGAAGGAGCGUGCUAUGGAGUGAUGUUCCAGUGUAGACCUAAGGUCUACACGCACAGGUAGGUCGCUCGUGGUCAA [Omei KL Arginine B SS A v1] | 209 nM | 186 nM | 203 nM | 238 nM | 186 nM
3 | GGAUAGGACUGAGGAUAUGGUAGUGAUGUUACCAAACUGGUUAAACAUGUCAGAAAACUGGCAUGACCAGAAGGCGGUCCUAUCG [FmnBX 27 U10+G76] | 104 nM | 65.5 nM | 72.5 nM | 55.3 nM | 57.2 nM
4 | UCUGGUAUAUCUGAUACCAGAGUAUAGUAUCAAUUGCAUAUGGAGUGAUGUUCCAUAUAACUCCCUUGGCAGCAGAUCUAUCUCU [Same State Theophylline B GF 25] | 292 nM | 308 nM | 325 nM | 386 nM | 288 nM
5 | AUUUUGGUUUAGAGUGAUGUUCCUUGUAUUCGAGGACCGGUACGGCCGCCACUCGAAUAGAAAAGAAAAGAAAUGAGUGAUGUUU [BDazzled - #4 SS Tryptophan A] | 519 nM | 267 nM | 362 nM | 357 nM | 356 nM
6 | AUUUAUCCGUCCAGCUGAGUGAUGUUUAGCCGAGGACCGGUACGGCCGCCACUCGUAAGAACCUGUUACGUUGGCUCCUGUGGUG [theeternabot_exclusion_KL_Trp_A_49] | 244 nM | 196 nM | 286 nM | 201 nM | 353 nM
7 | AAGGACGGGACUUCCUCGCCGGAUAGAGAUACCAGCCCAGCAAUGGGCCCUUGGCAGCUCACUGACCUCAGUGAUGUUGAGGUUC [Arange] | 289 nM | 203 nM | 240 nM | 193 nM | 210 nM
8 | CAUUCAGUGAUGUUGGAAGGCGAGCGGGAUACCAGCGGAGACUCACGCCCUUGGCAGCCCAUAUAUCCCAGGUAGAUAAUAGUUC [Same State - Theophylline A (Freestyle 5)] | 276 nM | 117 nM | 217 nM | 219 nM | 201 nM
9 | GCAAGAGAGUGAUGUUGUUUUGAUCAGGGCAAGGAUAUGCUAUAUAGCAGAAGGUGCCGUUUUCUGCUGGCUUUCGUUACCCAUU [theeternabot_exclusion_KL_FMN_A_6] | 750 nM | 605 nM | 865 nM | 990 nM | 708 nM
10 | AGGCCGAGCCAAGGAUAUUGUCAGAGUGAUGUUCGCCAAUACUCCAGCCGCGCCUCAUCAGCUGAGCAAGAAGGUGGUCCUCUCA [theeternabot_exclusion_KL_FMN_B_47] | 244 nM | 199 nM | 221 nM | 207 nM | 209 nM
11 | CGCAGUGAUGUUGCGAGUAACUACAGGGAAGGAGCGUGCUAAAGCACAGGUAGGUCGCCCAUGCAGUGAUGUUGUGUAAAAGGGU [Excluson Arginine A GF 13] | 102 nM | 98.6 nM | 106 nM | 118 nM | 90.8 nM
12 | AAACAUCACUGGGAGUGAUGUUCUCAGUGACGAGGACCGGUACGGCCGCCACUCGCGAGAGAUAUAGAUAAGUAAUGACAUCAUU [Excl Tryptophan A V4] | 347 nM | 298 nM | 354 nM | 390 nM | 433 nM
13 | AAGUGAUGUUGUAGUGAUGUUGUGAUGUUGCAGGAUAUAUAGUGAUGUAGAAGGGUAUGUACAGAUUUUUUUUUUGAGUGAUGAU [ffdcmullin] | 83.4 nM | 37.1 nM | 64.9 nM | 48.1 nM | 66.1 nM
14 | AGACUACCACACUGUCAAUAGACAGUGUACUAGGAUAUGCUGAUAAGCAGAAGGAGUGAUGUUCCGAGGUAGUCAAUAAAAUAAU [FmnAX 13 U28+G66] | 326 nM | 258 nM | 253 nM | 330 nM | 242 nM
15 | GGGAGUAGUGCGGCCGCCACUGUGAAAGUAGAAGAAUAUAGUGAUGUUAUAUAGGAUUAAAAGAAUAGGACCGGGCAUUAGAUUU [SSTRyptB.W] | 176 nM | 207 nM | 219 nM | 186 nM | 209 nM
16 | AGAGUUAUGCGAGGAUAUGCGGUUAGUACUCAAAGAGUACUAACGCAGAGUGAUGUUCUGUGAAACACAGAAGGCGCAUAACUCA [Omei KL FMN B SS B v1] | 854 nM | 160 nM | 475 nM | 448 nM | 441 nM
17 | AUGCGCGCGGCGGCCGCCACUCGCAUGAGAGUGAUGUUCUCACCGUGACCGUAAGGUCGCGGUGUGAGGACCGGGCCGGGCUGCG [#2 Same State - Tryptophan B Attempt #23 (HarryS)] | 28.4 nM | 72.7 nM | 245 nM | 281 nM | 118 nM
18 | AGUUAUGUUGCGGCCGCCACUGCGCGAGUGAUGUUCGUGGCAUAUAUAAUGUUAUAUAUGCAUCACAGGACCGGGCGGCAUAGCG [Same State - Tryptophan B] | 512 nM | 313 nM | 375 nM | 329 nM | 152 nM
19 | GGACUCAAAUGUAGUGAUGUUACAAGCGAUACCAGUAUCUAACAUUACCCUUGGCAGCGCGCCCAGCUCAGCAAAUUAGAUAGCG [theeternabot_sameState_KL_Theo_A_43] | 149 nM | 204 nM | 178 nM | 268 nM | 114 nM
20 | GGAUUGCCAGUGAUGUUGGCAUAAACUGAAGGAGCGCGUGAAAACGCAGGUAGGUCGCAGAACCUUGCCAACUGAUCGAAAGAUC [Ex Arginine A K4 29] | 123 nM | 138 nM | 121 nM | 122 nM | 106 nM
21 | CCAUCGCUAUUCGAUACCAGCUCCUUAGUGAUGUUAAGGUUUUACCCACUGUAGGUGGGAAGCCCUUGGCAGCGAAUAGUGAUGG [Theophylline B K4 28] | 982 nM | 872 nM | 1150 nM | 538 nM | 1030 nM

Row | Sequence | apparent KD of K4 kissing-loop reporter (input ligand: FMN 200 uM) | apparent KD of K4 kissing-loop reporter (input ligand: arginine 13.2 mM) | apparent KD of K4 kissing-loop reporter (input ligand: none) | apparent KD of K4 kissing-loop reporter [1] | apparent KD of K4 kissing-loop reporter [2]
22 | AAACUUGCAGUGAUGUUGCAAGUAGGUGAUACCAGCAUCGAAAGAUGCCCUUGGCAGCACCAAAACAUCACUUAGGUAUCACCAA [(H1)-(H2)-(T1)-(T2)-(H)'-(T)'_Design3] | 191 nM | 192 nM | 210 nM | 234 nM | 175 nM
23 | CCAUCGCUAUUCGAUACCAGUCAAAAUAAAAUAAUAAAUCUGCAAAGGAGUGAUGUUCCAGACCCUUGGCAGCGAAUAGUGAUGG [Theophylline B K4 2] | 746 nM | 552 nM | 834 nM | 709 nM | 723 nM
24 | UGAUACCAGACGGCCGCCACUCCCGUAAGUCAAAGACUUACGAAGAGAGUUGUCCAGUGAUGUUGGAGGACCGGGUCUGGUAUCU [FiskerMod 13 - Jieux - Exclusion - Tryptophan B] | 230 nM | 208 nM | 207 nM | 202 nM | 260 nM
25 | ACGUAGUUCUAGGAUACCAGCCAAGGUGCCAGGACAAAAGUCCUGGCAGUCAGUGAUGUUGGCCCUUGGCAGCCUAGAACUACGA [Omei KL Theo B Exc B v8] | 176 nM | 196 nM | 215 nM | 209 nM | 218 nM
26 | UCCUGCAAUCUGCCACGAAAGUGGAUUGAUACCAGAGUCGAAAGACUCCCUUGGCAGCGAGUGAUGUUCGACGCAGGUAAAUAAA [MatMod 5 - Jieux - Exclusion - Theophylline A] | 142 nM | 224 nM | 178 nM | 234 nM | 135 nM
27 | CCUAUCUCAUACGAUACCAGUCCGAGUGAUGUUCGAACAGGUUUUAGUUUGCCAUAUAAUGACCCUUGGCAGCGUAUGGGAUAGG [Ex Theophylline B K4 13] | 167 nM | 123 nM | 163 nM | 130 nM | 137 nM
28 | GCAGUGAUGUUGCGGAUGUACAGUGGCGUGCGAGGACCGGUACGGCCGCCACUCGUACAGAGCGAGCUAAUACAUCGAUAGGUGA [whbob_SS_Tryp_A_m5] | 230 nM | 212 nM | 236 nM | 288 nM | 241 nM
29 | AGACCACAAAGUGGUCAGUGUUCGCUGCAGCGAGGACCGGUACGGCCGCCACUCGCGAGUGAUGUUCGCGAGCGCAGCGAACACA [Omei KL Tryp A Exc A v5] | 95.9 nM | 68.1 nM | 92.6 nM | 75.6 nM | 114 nM
30 | UGGCGAGUGAUGUUCGUUGUUGUUGUGUGUCGAGGACCGGUACGGCCGCCACUCGAGUUGGUUGUUGUUGUUGCUGUUGUUGCUG [#04 K4 Tryptophan A Same State] | 158 nM | 124 nM | 155 nM | 130 nM | 87.6 nM
31 | AAGAAUAAUCUUGCAGUGAUGUUGCAAGAUACCAGCAUCGAAAGAUGCCCUUGGCAGCUUGAAACUGCAAGAAUCAAGCUGAAUA [Design1] | 150 nM | 131 nM | 140 nM | 145 nM | 137 nM
32 | UGACUGGACUGAAGGAGCGUUGAAGGAGCGUAGGCAGUGAUGUUGCCUACAGGUAGGUCGCAGCAGGUAGGUCGCAGUCUAGUCU [ArgBS 27 #DoubleAptamer #SwitchBubble] | 132 nM | 92.1 nM | 108 nM | 66.1 nM | 107 nM
33 | GGCCGAAGAGAAGGAUAUGGUUUCACGCGUCGUUAGUGAUGUUAAUGCGCAUGCCUUAGUAUAGAGCCAGAAGGUCUGGUCAGAA [theeternabot_sameState_KL_FMN_B_34] | 170 nM | 199 nM | 219 nM | 210 nM | 213 nM
34 | GGAUAGGACAGAGGAUAUCCUAAAGAGGCAAGAAUAACUUGUCUCAAAUGGAUGACCAGUGAUGUUGGAGAAGGCUGUCCUAUCG [FmnBX 6 - #SwitchBubble #StaticStem] | 406 nM | 194 nM | 207 nM | 147 nM | 178 nM
35 | UGUACCGAAUCAGGAUAUGUCGUCGAAAGACGAAAUGGAGUGAUGUUCCUUAAACUGCGAAAGCAGACAGAAGGGAUUUGGUACU [FmnBS 29 A9+U77] | 161 nM | 386 nM | 470 nM | 403 nM | 385 nM
36 | UGAUAGGACAGAAGGAGCGGAGGUCGUCAAAGACGACCAAUAACGUUGAUAGGAGUGAUGUUCCAGGUAGGUCGCUGUCCUAUCU [ArgBX 29 #SwitchBubble #StaticStem] | 147 nM | 127 nM | 121 nM | 152 nM | 95.8 nM
37 | AACAUUUUCAGAAGGAGCGUGAAUUAUUCAUAAUUAUAUUAUACGAGUGAUGUUCGUAUUUCACAGGUAGGUCGCUGAUAUAUUA [JR_SSArginiB_Sub001] | 113 nM | 133 nM | 114 nM | 133 nM | 107 nM
38 | AGCUCACACGGAAGGAGCGGAUAGAACUGACAGUUGGGCUCAAGUGAUGUUUGGGCUUGAAUCCAGGUAGGUCGCCGUGUGAGCU [Arg B SS t12] | 136 nM | 96.3 nM | 109 nM | 123 nM | 123 nM
39 | GUACCUUGGAAACAAGGACAGCUAACCGAAGGAGCGCGUGAAAACGCAGGUAGGUCGCGGUAGCGGAGUGAUGUUCCGCGAGAGC [Same State Arginine A GF 19] | 114 nM | 85.8 nM | 88.8 nM | 103 nM | 108 nM
40 | CAACAGCUUACGGCCGCCACUCCUUUAUAUGGUGCGCACCGUUGAGCUCUAGUGAUGUUGGUGCCGAGGACCGGGUAGGAAAGUA [theeternabot_sameState_KL_Trp_B_31] | 468 nM | 245 nM | 331 nM | 448 nM | 412 nM
41 | AAACGUCGGAAGUGAUGUUGAUGACGUAGUAAGGAUAUUGGACGCGCAAGAAGGUACUGGCAAACUAAGGACAUCCUGGAUAUUC [theeternabot_exclusion_KL_FMN_A_47] | 330 nM | 251 nM | 232 nM | 243 nM | 254 nM

— the supplement of paper PMC9170038
